Measurements as given in article PMC3394733, “Involvement of the Penta-EF-Hand Protein Pef1p in the Ca^2+-Dependent Regulation of COPII Subunit Assembly in Saccharomyces cerevisiae” (PLoS ONE, 2012).

B1: Sec13/31p complex (complex, S. cerevisiae)
chain 1: MVVIANAHNELIHDAVLDYYGKRLATCSSDKTIKIFEVEGETHKLIDTLTGHEGPVWRVDWAHPKFGTILASCSYDGKVLIWKEENGRWSQIAVHAVHSASVNSVQWAPHEYGPLLLVASSDGKVSVVEFKENGTTSPIIIDAHAIGVNSASWAPATIEEDGEHNGTKESRKFVTGGADNLVKIWKYNSDAQTYVLESTLEGHSDWVRDVAWSPTVLLRSYLASVSQDRTCIIWTQDNEQGPWKKTLLKEEKFPDVLWRASWSLSGNVLALSGGDNKVTLWKENLEGKWEPAGEVHQ
chain 2: MVKLAEFSRTATFAWSHDKIPLLVSGTVSGTVDANFSTDSSLELWSLLAADSEKPIASLQVDSKFNDLDWSHNNKIIAGALDNGSLELYSTNEANNAINSMARFSNHSSSVKTVKFNAKQDNVLASGGNNGEIFIWDMNKCTESPSNYTPLTPGQSMSSVDEVISLAWNQSLAHVFASAGSSNFASIWDLKAKKEVIHLSYTSPNSGIKQQLSVVEWHPKNSTRVATATGSDNDPSILIWDLRNANTPLQTLNQGHQKGILSLDWCHQDEHLLLSSGRDNTVLLWNPESAEQLSQFPARGNWCFKTKFAPEAPDLFACASFDNKIEVQTLQNLTNTLDEQETETKQQESETDFWNNVSREESKEKPTVFHLQAPTWYGEPSPAAHWAFGGKLVQITPDGKGVSITNPKISGLESNTTLSEALKTKDFKPLINQRLVKVIDDVNEEDWNLLEKLSMDGTEEFLKEALAFDNDESDAQDDANNEKEDDGEEFFQQIETNFQPEGDFSLSGNIEQTISKNLVSGNIKSAVKNSLENDLLMEAMVIALDSNNERLKESVKNAYFAKYGSKSSLSRILYSISKREVDDLVENLDVSQWKFISKAIQNLYPNDIAQRNEMLIKLGDRLKENGHRQDSLTLYLAAGSLDKVASIWLSEFPDLEDKLKKDNKTIYEAHSECLTEFIERFTVFSNFINGSSTINNEQLIAKFLEFINLTTSTGNFELATEFLNSLPSDNEEVKTEKARVLIASGKSLPAQNPATATTSKAKYTNAKTNKNVPVLPTPGMPSTTSIPSMQAPFYGMTPGASANALPPKPYVPATTTSAPVHTEGKYAPPSQPSMASPFVNKTNSSTRLNSFAPPPNPYATATVPATNVSTTSIPQNTFAPIQPGMPIMGDYNAQSSSIPSQPPINAVSGQTPHLNRKANDGWNDLPLKVKEKPSRAKAVSVAPPNILSTPTPLNGIPANAASTMPPPPLSRAPSSVSMVSPPPLHKNSRVPSLVATSESPRASISNPYAPPQSSQQFPIGTISTANQTSNTAQVASSNPYAPPPQQRVATPLSGGVPPAPLPKASNPYAPTATTQPNGSSYPPTGPYTNNHTMTSPPPVFNKPPTGPPPISMKKRSNKLASIEQNPSQGATYPPTLSSSASPLQPSQPPTLASQVNTSAENVSHEIPADQQPIVDFLKEELARVTPLTPKEYSKQLKDCDKRLKILFYHLEKQDLLTQPTIDCLHDLVALMKEKKYKEAMVIHANIATNHAQEGGNWLTGVKRLIGIAEATLN
notes: Sec13p, COPII outer coat subunit, S. cerevisiae; Sec31p, COPII outer coat subunit, S. cerevisiae; also called outer COPII coat; source: purified
B2: GST-Pef1p (natural protein, S. cerevisiae, UniProt P53238 1-335, looked up)
chain: MCAKKLKYAAGDDFVRYATPKEAMEETRREFEKEKQRQQQIKVTQAQTPNTRVHSAPIPLQTQYNKNRAENGHHSYGSPQSYSPRHTKTPVDPRYNVIAQKPAGRPIPPAPTHYNNLNTSAQRIASSPPPLIHNQAVPAQLLKKVAPASFDSREDVRDMQVATQLFHNHDVKGKNRLTAEELQNLLQNDDNSHFCISSVDALINLFGASRFGTVNQAEFIALYKRVKSWRKVYVDNDINGSLTISVSEFHNSLQELGYLIPFEVSEKTFDQYAEFINRNGTGKELKFDKFVEALVWLMRLTKLFRKFDTNQEGIATIQYKDFIDATLYLGRFLPH
notes: No removal of GST is described; also called N-terminally GST-fused Pef1p; pMY3; source: E. coli JM109, purified (glutathione-Sepharose, eluted with 10 mM glutathione); not shown: GST, N-terminal, kept

Key:
Details in all cases: both partners purified
[1] = biological target: B2; experiment: pull-down; GST-Pef1p or GST (40 nM) and MBP-Sec31p fragment (80 nM), glutathione-Sepharose beads, 4°C 2 h, 20 mM HEPES-KOH pH 8.0, 160 mM potassium acetate, 0.1% Triton X-100; CaCl2 or EGTA not told for this experiment; immunoblot with anti-MBP
[2] = biological target: T1, Sec23/24p complex (S. cerevisiae, UniProt P15303 1-768; P40482 1-926); experiment: light scattering of liposomes; liposomes (100 µg/mL) preloaded with Sar1p (950 nM) and GMP-PNP (0.1 mM); Sec23/24p (160 nM), then Sec13/31p (260 nM) added; 350 nm, 25°C, 20 mM HEPES-KOH pH 6.8, 160 mM potassium acetate, 1 mM MgCl2; 5 mM EGTA in panel A, none in panel B; with or without GST-Pef1p or its mutant (520 nM)
T1 construct: Sec23p, COPII inner coat subunit, GAP for Sar1p, S. cerevisiae; Sec24p, COPII inner coat subunit, S. cerevisiae; also called inner COPII coat
T1 sequence (P15303 whole entry, chain 1 of 2): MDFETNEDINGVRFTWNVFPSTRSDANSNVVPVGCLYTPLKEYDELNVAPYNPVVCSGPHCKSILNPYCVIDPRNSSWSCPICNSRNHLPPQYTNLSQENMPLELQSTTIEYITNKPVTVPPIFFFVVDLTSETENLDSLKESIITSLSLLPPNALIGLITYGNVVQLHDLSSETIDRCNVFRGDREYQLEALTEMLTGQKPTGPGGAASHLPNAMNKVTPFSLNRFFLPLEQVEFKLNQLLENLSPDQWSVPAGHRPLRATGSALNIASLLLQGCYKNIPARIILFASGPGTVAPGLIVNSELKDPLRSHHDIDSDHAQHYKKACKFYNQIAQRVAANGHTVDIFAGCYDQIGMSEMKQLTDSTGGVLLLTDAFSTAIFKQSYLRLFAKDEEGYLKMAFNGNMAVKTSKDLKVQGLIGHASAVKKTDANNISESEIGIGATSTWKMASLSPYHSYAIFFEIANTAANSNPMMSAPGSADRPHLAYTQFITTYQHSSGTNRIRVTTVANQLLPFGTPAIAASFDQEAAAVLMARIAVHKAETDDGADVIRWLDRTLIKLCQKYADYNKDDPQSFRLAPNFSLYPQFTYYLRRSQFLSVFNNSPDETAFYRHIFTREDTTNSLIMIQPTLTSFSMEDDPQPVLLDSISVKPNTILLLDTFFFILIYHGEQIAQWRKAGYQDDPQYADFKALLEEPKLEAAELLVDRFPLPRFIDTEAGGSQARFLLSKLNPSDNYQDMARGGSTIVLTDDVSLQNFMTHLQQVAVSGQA
T1 sequence (P40482 whole entry, chain 2 of 2): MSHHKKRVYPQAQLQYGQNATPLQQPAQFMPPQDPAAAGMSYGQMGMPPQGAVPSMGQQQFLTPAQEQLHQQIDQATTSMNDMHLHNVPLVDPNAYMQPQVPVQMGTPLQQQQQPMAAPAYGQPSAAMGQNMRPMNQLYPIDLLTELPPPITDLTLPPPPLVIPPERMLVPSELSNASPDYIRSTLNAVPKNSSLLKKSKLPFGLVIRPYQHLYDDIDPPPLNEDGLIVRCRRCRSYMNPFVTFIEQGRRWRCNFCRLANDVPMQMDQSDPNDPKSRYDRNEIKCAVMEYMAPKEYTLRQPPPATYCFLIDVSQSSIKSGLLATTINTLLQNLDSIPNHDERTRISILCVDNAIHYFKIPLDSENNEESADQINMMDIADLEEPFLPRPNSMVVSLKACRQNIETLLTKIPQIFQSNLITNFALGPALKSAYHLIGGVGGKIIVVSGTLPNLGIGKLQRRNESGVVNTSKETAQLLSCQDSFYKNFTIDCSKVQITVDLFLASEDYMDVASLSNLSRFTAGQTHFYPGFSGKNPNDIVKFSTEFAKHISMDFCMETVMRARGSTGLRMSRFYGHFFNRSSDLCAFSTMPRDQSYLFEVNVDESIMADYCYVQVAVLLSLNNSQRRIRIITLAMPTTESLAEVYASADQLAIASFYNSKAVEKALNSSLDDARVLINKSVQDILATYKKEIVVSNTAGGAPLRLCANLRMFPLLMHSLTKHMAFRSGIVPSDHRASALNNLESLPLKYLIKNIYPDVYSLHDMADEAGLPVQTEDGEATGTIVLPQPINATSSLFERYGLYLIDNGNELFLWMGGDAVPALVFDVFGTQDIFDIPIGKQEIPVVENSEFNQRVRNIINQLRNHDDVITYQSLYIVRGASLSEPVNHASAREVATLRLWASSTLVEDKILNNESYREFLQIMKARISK

[3] = biological target: B1; experiment: pull-down; GST fusion or GST (40 nM) and Sec13/31p (80 nM) with 5 mM EGTA, glutathione-Sepharose beads, 4°C 2 h, 20 mM HEPES-KOH pH 8.0, 160 mM potassium acetate, 0.1% Triton X-100; immunoblot with anti-Sec31p

Row | binding result [3] | Binder | also measured
1 | – | MBP-Sec31(879–1114) (domain or fragment, S. cerevisiae, UniProt P38968 879-1114, looked up, also called proline-rich region of Sec31p; pMY12; source: E. coli C41(DE3), purified (amylose resin, eluted with 30 mM maltose)) APIQPGMPIMGDYNAQSSSIPSQPPINAVSGQTPHLNRKANDGWNDLPLKVKEKPSRAKAVSVAPPNILSTPTPLNGIPANAASTMPPPPLSRAPSSVSMVSPPPLHKNSRVPSLVATSESPRASISNPYAPPQSSQQFPIGTISTANQTSNTAQVASSNPYAPPPQQRVATPLSGGVPPAPLPKASNPYAPTATTQPNGSSYPPTGPYTNNHTMTSPPPVFNKPPTGPPPISMKK | binding result [1]: binds
2 | – | B1 | binding result [2]: binds
3 | binds | B2 | –
4 | binds | GST-Pef1p-E180/181/248A (natural protein, S. cerevisiae, UniProt P53238 1-335, looked up, also called pMY14; source: E. coli JM109, purified (glutathione-Sepharose, eluted with 10 mM glutathione); not shown: GST, N-terminal, kept) MCAKKLKYAAGDDFVRYATPKEAMEETRREFEKEKQRQQQIKVTQAQTPNTRVHSAPIPLQTQYNKNRAENGHHSYGSPQSYSPRHTKTPVDPRYNVIAQKPAGRPIPPAPTHYNNLNTSAQRIASSPPPLIHNQAVPAQLLKKVAPASFDSREDVRDMQVATQLFHNHDVKGKNRLTAAALQNLLQNDDNSHFCISSVDALINLFGASRFGTVNQAEFIALYKRVKSWRKVYVDNDINGSLTISVSAFHNSLQELGYLIPFEVSEKTFDQYAEFINRNGTGKELKFDKFVEALVWLMRLTKLFRKFDTNQEGIATIQYKDFIDATLYLGRFLPH | –
